Tests used:
[1] = molecular target: T1, human M-CSF (human, UniProt P09603 33-190, limits assumed); assay: competition ELISA: soluble cytokine against J695 (100 ng/ml) binding to immobilized human IL-12
T1 sequence (looked up): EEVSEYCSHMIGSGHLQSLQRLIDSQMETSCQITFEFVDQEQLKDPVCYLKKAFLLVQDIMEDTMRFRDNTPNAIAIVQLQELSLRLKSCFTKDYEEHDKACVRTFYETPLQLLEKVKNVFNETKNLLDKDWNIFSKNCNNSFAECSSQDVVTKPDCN
Method: (§1) The plates were washed 4 times and incubated for 1 h at room temperature with 100 μl mouse anti-human lambda-HRP (1:500 in PBS-T/BSA, Southern Biotech. Ass. Inc., Birmingham, Ala.). The plates were washed 4 times and developed with ABTS (Kirkegaard & Perry Lab, Gaithersburg, Md.) for 20-30 minutes in the dark. The OD₄₅₀ nm was read using a microplate reader (Molecular Devices, Menlo Park, Calif.).

[2] = molecular target: human TGF-β1 (human, UniProt P01137 279-390); assay: as above
Method: as §1

[3] = molecular target: T2, human lymphotoxin (human, UniProt P01374 35-205, limits assumed); assay: as above
T2 sequence (looked up): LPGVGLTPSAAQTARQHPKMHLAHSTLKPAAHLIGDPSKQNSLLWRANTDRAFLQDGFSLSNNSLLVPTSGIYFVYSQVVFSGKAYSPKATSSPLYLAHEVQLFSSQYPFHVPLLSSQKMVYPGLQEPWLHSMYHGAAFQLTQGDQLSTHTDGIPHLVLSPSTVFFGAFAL
Method: as §1

[4] = molecular target: human IGF-II (human, UniProt P01344 25-91); assay: as above
Method: as §1

[5] = molecular target: T3, human soluble IL-6 receptor (human, UniProt P08887 20-358); assay: as above
T3 construct: Soluble form
T3 sequence (looked up): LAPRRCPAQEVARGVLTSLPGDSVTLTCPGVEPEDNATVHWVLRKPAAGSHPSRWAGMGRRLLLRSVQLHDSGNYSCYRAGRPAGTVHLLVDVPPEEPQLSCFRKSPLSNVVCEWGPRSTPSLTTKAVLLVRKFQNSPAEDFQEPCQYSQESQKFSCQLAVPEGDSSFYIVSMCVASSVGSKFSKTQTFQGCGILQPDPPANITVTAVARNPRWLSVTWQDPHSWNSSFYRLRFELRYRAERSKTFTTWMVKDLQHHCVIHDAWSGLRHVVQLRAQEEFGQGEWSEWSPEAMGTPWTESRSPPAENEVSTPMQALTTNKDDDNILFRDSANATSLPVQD
Method: as §1

[6] = molecular target: T4, human IFN-gamma (human, UniProt P01579 24-166, limits assumed); assay: as above
T4 sequence (looked up): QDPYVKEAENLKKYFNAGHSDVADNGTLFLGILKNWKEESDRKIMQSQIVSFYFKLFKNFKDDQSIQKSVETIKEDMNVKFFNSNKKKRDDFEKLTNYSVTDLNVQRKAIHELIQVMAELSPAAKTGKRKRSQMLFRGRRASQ
Method: as §1

[7] = molecular target: human IL-10 (human, UniProt P22301 19-178); assay: as above
Method: as §1

[8] = molecular target: human IL-8 (human, UniProt P10145 28-99, limits assumed); assay: as above
Method: as §1

[9] = molecular target: human IL-1β (human, UniProt P01584 117-269); assay: as above
Method: as §1

[10] = molecular target: human IL-17 (human, UniProt Q16552 20-155, limits assumed); assay: as above
Method: as §1

[11] = molecular target: T5, human IL-4 (human, UniProt P05112 25-153); assay: as above
T5 sequence (looked up): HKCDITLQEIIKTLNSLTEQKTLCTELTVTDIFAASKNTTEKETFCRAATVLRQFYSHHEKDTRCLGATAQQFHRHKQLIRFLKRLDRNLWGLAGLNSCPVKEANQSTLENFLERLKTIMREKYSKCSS
Method: as §1

[12] = molecular target: T6, human IL-1α (human, UniProt P01583 113-271); assay: as above
T6 sequence (looked up): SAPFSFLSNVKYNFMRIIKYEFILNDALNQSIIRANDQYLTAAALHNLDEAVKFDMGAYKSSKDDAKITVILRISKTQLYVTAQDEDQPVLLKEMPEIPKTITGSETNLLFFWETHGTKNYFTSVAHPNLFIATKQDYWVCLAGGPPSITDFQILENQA
Method: as §1

[13] = molecular target: human IL-2 (human, UniProt P60568 21-153); assay: as above
Method: as §1

[14] = molecular target: human TNFα (human, UniProt P01375 77-233); assay: as above
Method: as §1

[15] = molecular target: T7, human IL-12 p40 subunit (free p40) (human, UniProt P29460 23-328); assay: competition ELISA: soluble human IL-12 p40 (2 nM) against J695 binding to immobilized human IL-12
T7 sequence (looked up): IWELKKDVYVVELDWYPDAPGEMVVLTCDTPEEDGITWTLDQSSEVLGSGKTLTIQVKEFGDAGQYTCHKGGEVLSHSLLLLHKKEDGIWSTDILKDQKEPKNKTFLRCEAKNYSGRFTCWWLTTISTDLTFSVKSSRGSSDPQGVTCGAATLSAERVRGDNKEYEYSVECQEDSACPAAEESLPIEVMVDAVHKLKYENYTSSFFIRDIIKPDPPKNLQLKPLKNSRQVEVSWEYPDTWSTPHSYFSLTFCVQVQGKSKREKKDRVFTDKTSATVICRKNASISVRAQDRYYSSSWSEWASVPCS
Method: as §1

B1: J695 (antibody, V domains shown)
VH: QVQLVESGGGVVQPGRSLRLSCAASGFTFSSYGMHWVRQAPGKGLEWVAFIRYDGSNKYYADSVKGRFTISRDNSKNTLYLQMNSLRAEDTAVYYCKTHGSHDNWGQGTMVTVSS
VL: QSVLTQPPSVSGAPGQRVTISCSGSRSNIGSNTVKWYQQLPGTAPKLLIYYNDQRPSGVPDRFSGSKSGTSASLAITGLQAEDEADYYCQSYDRYTHPALLFGTGTKVTVLG
notes: Human IgG1 with lambda light chain (detected with anti-human lambda); Made in CHO or COS cells
[1]
  binding result: no binding (tested: 2 nM)
[2]
  binding result: no binding (tested: 2 nM)
[3]
  binding result: no binding (tested: 2 nM)
[4]
  binding result: no binding (tested: 2 nM)
[5]
  binding result: no binding (tested: 2 nM)
[6]
  binding result: no binding (tested: 2 nM)
[7]
  binding result: no binding (tested: 2 nM)
[8]
  binding result: no binding (tested: 2 nM)
[9]
  binding result: no binding (tested: 2 nM)
[10]
  binding result: no binding (tested: 2 nM)
[11]
  binding result: no binding (tested: 2 nM)
[12]
  binding result: no binding (tested: 2 nM)
[13]
  binding result: no binding (tested: 2 nM)
[14]
  binding result: no binding (tested: 2 nM)
[15]
  binding result: binds
